The Human Domainome abundance scans (Beltran et al. 2025)
± gives the uncertainty stated by the source.

B1: CD2-associated protein, residues 1 to 59; numbered along this chain, Q9Y5K6 (parent)
chain: MVDYIVEYDYDAVHDDELTIRVGEIIRNVKKLQEEGWLEGELNGRRGMFPDNFVKEIKR

Variants of: B1
Assay: abundance fitness (aPCA) (normalised: wild type 0, dead -1); higher = more abundant; growth selection in yeast, the domain comes from the species named
Conditions: Homo sapiens

Abundance fitness of substitutions, site by site:
L42: H -0.297 ± 0.15, I 0.043 ± 0.22, M -0.678 ± 0.21, Q -0.328 ± 0.19, S -0.267 ± 0.1, T -0.515 ± 0.18, V -0.146 ± 0.14, W -0.399 ± 0.16, Y -0.839 ± 0.43
N43: C -0.383 ± 0.11, E -0.192 ± 0.45, F -0.409 ± 0.15, G -0.057 ± 0.15, H 0.145 ± 0.15, K -0.149 ± 0.12, L -0.323 ± 0.06, M -0.395 ± 0.15, P -0.653 ± 0.2, Q -0.287 ± 0.12, R -0.082 ± 0.089, S -0.221 ± 0.051, T -0.62 ± 0.12, V -0.694 ± 0.18, W -0.562 ± 0.26, Y -0.072 ± 0.11
G44: H -0.549 ± 0.3, L -0.547 ± 0.36, R -0.133 ± 0.32, S -0.592 ± 0.22, V -0.843 ± 0.31
R45: A -0.27 ± 0.14, C 0.033 ± 0.26, F -0.248 ± 0.19, G -0.7 ± 0.31, H 0.232 ± 0.2, I -0.191 ± 0.12, K -0.075 ± 0.23, L -0.224 ± 0.11, M -0.274 ± 0.14, N -0.16 ± 0.14, Q -0.009 ± 0.13, S -0.07 ± 0.079, V -0.275 ± 0.13, Y -0.359 ± 0.24
R46: C -0.363 ± 0.2, E -0.445 ± 0.26, F -0.346 ± 0.2, I -0.243 ± 0.37, K -0.181 ± 0.17, L -0.245 ± 0.12, M -0.066 ± 0.2, Q -0.301 ± 0.21, S -0.402 ± 0.13, T -0.082 ± 0.13, W -0.434 ± 0.16
M48: A 0.045 ± 0.086, C -0.012 ± 0.18, D -0.573 ± 0.23, F -0.175 ± 0.13, G -0.33 ± 0.11, H -0.257 ± 0.11, I 0.115 ± 0.17, K 0.093 ± 0.097, L -0.065 ± 0.079, N 0.047 ± 0.17, P -0.524 ± 0.22, Q -0.015 ± 0.082, R 0.071 ± 0.062, S 0.048 ± 0.083, T 0.035 ± 0.094, V -0.053 ± 0.069, W -0.126 ± 0.11, Y -0.063 ± 0.16
F49: A -0.539 ± 0.26, I -0.195 ± 0.15, K -0.826 ± 0.43, L -0.251 ± 0.09, M -0.38 ± 0.12, P -0.877 ± 0.3, Q -0.857 ± 0.43, S -0.695 ± 0.15, V -0.056 ± 0.17
P50: A -0.502 ± 0.16, E -0.968 ± 0.4, F -0.589 ± 0.16, G -0.322 ± 0.12, H -0.149 ± 0.17, I -0.843 ± 0.29, K -0.184 ± 0.28, L -0.412 ± 0.11, N -0.261 ± 0.23, R 0.115 ± 0.15, S -0.329 ± 0.11, T -0.746 ± 0.24, V -0.996 ± 0.28
D51: A 0.04 ± 0.059, C -0.195 ± 0.45, E 0.032 ± 0.2, G -0.047 ± 0.076, H -0.032 ± 0.099, I 0.092 ± 0.11, L -0.017 ± 0.067, M -0.136 ± 0.41, N 0.191 ± 0.3, P -0.092 ± 0.083, R -0.019 ± 0.064, S -0.055 ± 0.057, T 0.018 ± 0.071, V -0.066 ± 0.091, W -0.425 ± 0.41, Y -0.125 ± 0.088
N52: A -0.091 ± 0.22, C -0.041 ± 0.17, D -0.236 ± 0.23, E -0.263 ± 0.34, F 0.073 ± 0.13, G -0.128 ± 0.17, H -0.284 ± 0.13, I -0.141 ± 0.18, K 0.071 ± 0.096, L -0.03 ± 0.078, M -0.155 ± 0.11, P -0.065 ± 0.08, Q -0.127 ± 0.13, R 0.028 ± 0.094, S 0.107 ± 0.08, T -0.05 ± 0.11, V 0.061 ± 0.17, Y -0.203 ± 0.19
F53: A 0.052 ± 0.073, C 0.122 ± 0.083, D -0.433 ± 0.14, E -0.155 ± 0.21, G -0.145 ± 0.089, H 0.111 ± 0.11, I -0.119 ± 0.14, L 0.056 ± 0.086, M -0.047 ± 0.28, N -0.053 ± 0.072, P -0.249 ± 0.11, Q -0.317 ± 0.12, R 0.001 ± 0.084, S 0.035 ± 0.071, T 0.205 ± 0.098, V 0.023 ± 0.083, W -0.026 ± 0.35, Y -0.131 ± 0.13
V54: A -0.258 ± 0.21, G -0.075 ± 0.091, H -0.484 ± 0.43, P -0.604 ± 0.32, R -0.557 ± 0.19, S -0.358 ± 0.16, T -0.209 ± 0.3
K55: C -0.027 ± 0.15, D -0.755 ± 0.33, E -0.489 ± 0.3, F -0.961 ± 0.42, G -0.216 ± 0.1, H -0.301 ± 0.27, I -0.177 ± 0.12, L -0.303 ± 0.094, M -0.218 ± 0.14, N -0.272 ± 0.17, P -0.507 ± 0.37, Q 0.032 ± 0.11, R 0.009 ± 0.072
